Results taken from patent US8722043B2, “Induction of p53 expression by neutralization of neuropilin-2 for the treatment of cancers” (Diaclone, priority 2008, dated 2014).

Assays:
[1] = test system: Colo320 human tumour cells; experiment: Tumour colony formation in semi-solid agar medium; type: cell-based
Description: In order to determine whether the ITAC-B1 antibody has a neutralizing activity on the formation of tumour colonies in vitro, tests for tumour colony formation in vitro in a semi-solid agar medium containing agar were carried out. The principle of this test is based on bringing Colo320 human tumour cells (which express NRP-2 at their membrane surface and, furthermore, naturally secrete VEGF into the culture medium) into contact with the ITAC-B1 antibody. 4000 Colo320 cells are seeded into each well of a 24-well plate, in a semi-solid medium containing agar, and in the presence of 10 μg/ml of anti-NRP-2 antibody ITAC-B1. By way of comparison, the same test is carried out in the presence of cytotoxic agents with a proven action, i.e. 5-fluorouracil (5-FU), used at a rate of 50 μg/ml, or of Avastin® (bevacizumab: humanized monoclonal antibodies directed against VEGF), used at a rate of 50 μg/ml, or in the presence of a control isotype antibody (mouse IgG1 monoclonal antibody (BZ1)), used at a rate of 10 μg/ml.
At 10 days post-seeding, the colonies were counted under an optical microscope.
Since neuropilin-2 is a coreceptor for VEGF, it was verified whether the activity of ITAC-B1 was dependent on an interaction between NRP-2 and the VEGF produced by the Colo320 cells. With this aim, the tests for Colo320-cell colony formation were carried out under the conditions described above, and in the presence of ITAC-B1 antibody (10 μg/ml), of bevacizumab (50 μg/ml) or of control antibody (10 μg/ml), used separately or in combination.
The results are given in FIG. 10: the y-axis represents the number of colonies formed; on the x-axis, the antibodies present in the culture medium are indicated by a “+”.

HT29ctrl cells = experiment: Annexin V-APC apoptosis test; type: cell-based, human; settings: 0.5, 1 and 5 μg/ml; 16 hours
Description: In order to determine the ability of the ITAC-B1 antibody to induce apoptosis of tumour cells expressing NRP-2, an in vitro Annexin V-APC apoptosis test was carried out (BD Pharmingen, San Diego, Calif.). This test is based on the externalization of phosphatidylserin by apoptotic cells and on the binding of Annexin V-APC to this molecule.
1 ml of DMEM medium containing 10% of inactivated FCS and 100 000 HT29-NRP-2 cells or 100 000 HT29ctrl cells were seeded, per well, into a 24-well Nunc plate. After adhesion of the cells (3 hours), three concentrations of ITAC-B anti-NRP-2 antibody (0.5 μg/ml, 1 μg/ml and 5 μg/ml) were tested in various wells. In parallel, “cells alone” controls were carried out, as were negative controls (anti-human mouse IgG1 antibody (BZ1) at the same concentrations as the ITAC-B1 antibody).
After incubation for 16 hours, the culture supernatant was drawn off and 500 μl of trypsin-EDTA were added to each well and left in contact for 10 minutes. When the cells began to detach, 500 μl of DMEM medium-10% FCS were added per well. […]
For each of the panels of FIG. 12, the number of events (number of cells) is indicated on the y-axis and the fluorescence intensity (corresponding to the labelling of the cells with the Annexin V-APC) is represented on the x-axis. […]

VEGFR1 = experiment: Western blotting of VEGFR1 phosphorylation; type: cell-based, human; settings: 20 μg/ml, 24 hours; HT29-NRP-2 and Colo320^siRNA-ctrl cells; treated versus not treated
Description: The possible effect of the ITAC-B1 antibody on the degree of phosphorylation of a VEGF receptor (VEGFR1), and also on the phosphorylation of the AKT protein which is activated by means of the VEGF receptors, was studied on HT29-NRP-2 and Colo320^siRNA-ctrl tumour cells.
The cells were cultured for 24 hours in RPMI medium+10% FCS in the presence of the BZ1 control antibody at 20 μg/ml, of ITAC-B1 at 20 μg/ml or of 5-FU at 50 μg/ml. A “nontreated cell” control was added (“medium” control). The cells were then isolated and lysed, and the phosphorylation of VEGFR-1 and of AKT was evaluated by Western blotting on the cell protein extracts, using antibodies directed against nonphosphorylated VEGFR1 (anti-VEGFR1 rabbit polyclonal antibody) or phosphorylated VEGFR1 (anti-phospho-VEGFR1^Tyr1213 rabbit polyclonal antibody, R&D systems) or antibodies directed against nonphosphorylated AKT (rabbit polyclonal antibody C67E7, Cell Signaling technology) or phosphorylated AKT (anti-phospho-AKT^Ser473 rabbit polyclonal antibody DE-9, Cell Signaling technology). The results are represented in FIGS. 16 and 17.

B1: ITAC-B1: anti-human neuropilin-2 murine monoclonal antibody, VH SEQ ID No. 2, VL SEQ ID No. 4, produced by hybridoma CNCM 1-4054 (antibody, listed as Mus musculus, V domains shown)
VH: EVKLQESGAELVKPGASVKLSCTVSGFNIKDTYIHWVIQRPEQGLEWLGRIDPANGNTKYDPKFQGKATITADTSSNTAYLQLSSLTSEDTAVYYCARWAVVGDYWGQGTTLTVSS
VL: YCDHPLYKFLHVSAGDRVTITCKASQSVSDDVAWYQQKPGQSPKLLIYSASNRYTGVPDRFTGSGYGTDFTFTISTVQPEDLAVYFCQQDYSSPTFGSGTKLELK
B1 was tested, and the “number of colonies compared with the cells alone control” value ([1]; ITAC-B1 10 μg/ml alone (FIG. 10)) was “greatly reduced”, the number of colonies ([1]; ITAC-B1 10 μg/ml combined with bevacizumab 50 μg/ml (FIG. 10)) was “identical to that observed when the medium contains the ITAC-B1 antibody alone” and the “apoptosis (Annexin V-APC labelling)” value (HT29ctrl cells) was “does not bring about the apoptosis of cells not expressing NRP-2”. The “phosphorylation status of VEGFR” value (VEGFR1) was “similar”.
